According to IntAct's records for PubMed 24114786:

Assays:
bak1_arath BAK1 = bak1_arath BAK1 (UniProt Q94F62)
flica_pseai fliC = flica_pseai fliC (UniProt P21184)
flica_pseai fliC, sequence (P21184 whole entry): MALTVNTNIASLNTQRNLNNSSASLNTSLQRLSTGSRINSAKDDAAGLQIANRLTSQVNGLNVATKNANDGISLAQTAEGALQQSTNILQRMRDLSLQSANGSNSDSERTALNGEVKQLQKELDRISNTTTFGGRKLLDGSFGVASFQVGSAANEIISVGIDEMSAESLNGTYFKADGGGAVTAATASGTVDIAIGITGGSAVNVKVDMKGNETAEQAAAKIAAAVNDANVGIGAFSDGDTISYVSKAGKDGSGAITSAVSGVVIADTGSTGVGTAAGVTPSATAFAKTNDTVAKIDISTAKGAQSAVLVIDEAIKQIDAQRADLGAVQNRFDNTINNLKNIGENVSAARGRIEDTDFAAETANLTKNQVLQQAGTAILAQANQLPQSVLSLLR

bak1_arath BAK1, sequence (Q94F62 whole entry): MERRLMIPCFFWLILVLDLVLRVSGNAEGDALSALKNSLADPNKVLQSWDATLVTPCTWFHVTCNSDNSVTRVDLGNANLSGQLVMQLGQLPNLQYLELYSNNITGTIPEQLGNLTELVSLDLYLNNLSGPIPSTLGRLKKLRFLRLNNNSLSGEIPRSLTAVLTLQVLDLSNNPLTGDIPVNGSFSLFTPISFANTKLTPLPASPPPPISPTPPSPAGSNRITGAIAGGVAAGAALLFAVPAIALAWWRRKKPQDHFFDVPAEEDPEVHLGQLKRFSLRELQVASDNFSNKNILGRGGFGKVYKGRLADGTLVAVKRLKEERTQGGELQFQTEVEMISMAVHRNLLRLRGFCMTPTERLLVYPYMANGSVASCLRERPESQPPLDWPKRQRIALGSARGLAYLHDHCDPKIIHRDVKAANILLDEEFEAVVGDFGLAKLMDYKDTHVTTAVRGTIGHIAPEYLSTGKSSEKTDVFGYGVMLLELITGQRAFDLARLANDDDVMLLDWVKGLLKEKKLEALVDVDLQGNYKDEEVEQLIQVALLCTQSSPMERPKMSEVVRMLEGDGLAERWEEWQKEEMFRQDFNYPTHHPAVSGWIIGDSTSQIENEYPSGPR
LRR receptor-like serine/threonine-protein kinase FLS2 (Arabidopsis thaliana (Mouse-ear cress)), Q9FL28 R294A;H316A, sequence (Q9FL28 whole entry R294A/H316A): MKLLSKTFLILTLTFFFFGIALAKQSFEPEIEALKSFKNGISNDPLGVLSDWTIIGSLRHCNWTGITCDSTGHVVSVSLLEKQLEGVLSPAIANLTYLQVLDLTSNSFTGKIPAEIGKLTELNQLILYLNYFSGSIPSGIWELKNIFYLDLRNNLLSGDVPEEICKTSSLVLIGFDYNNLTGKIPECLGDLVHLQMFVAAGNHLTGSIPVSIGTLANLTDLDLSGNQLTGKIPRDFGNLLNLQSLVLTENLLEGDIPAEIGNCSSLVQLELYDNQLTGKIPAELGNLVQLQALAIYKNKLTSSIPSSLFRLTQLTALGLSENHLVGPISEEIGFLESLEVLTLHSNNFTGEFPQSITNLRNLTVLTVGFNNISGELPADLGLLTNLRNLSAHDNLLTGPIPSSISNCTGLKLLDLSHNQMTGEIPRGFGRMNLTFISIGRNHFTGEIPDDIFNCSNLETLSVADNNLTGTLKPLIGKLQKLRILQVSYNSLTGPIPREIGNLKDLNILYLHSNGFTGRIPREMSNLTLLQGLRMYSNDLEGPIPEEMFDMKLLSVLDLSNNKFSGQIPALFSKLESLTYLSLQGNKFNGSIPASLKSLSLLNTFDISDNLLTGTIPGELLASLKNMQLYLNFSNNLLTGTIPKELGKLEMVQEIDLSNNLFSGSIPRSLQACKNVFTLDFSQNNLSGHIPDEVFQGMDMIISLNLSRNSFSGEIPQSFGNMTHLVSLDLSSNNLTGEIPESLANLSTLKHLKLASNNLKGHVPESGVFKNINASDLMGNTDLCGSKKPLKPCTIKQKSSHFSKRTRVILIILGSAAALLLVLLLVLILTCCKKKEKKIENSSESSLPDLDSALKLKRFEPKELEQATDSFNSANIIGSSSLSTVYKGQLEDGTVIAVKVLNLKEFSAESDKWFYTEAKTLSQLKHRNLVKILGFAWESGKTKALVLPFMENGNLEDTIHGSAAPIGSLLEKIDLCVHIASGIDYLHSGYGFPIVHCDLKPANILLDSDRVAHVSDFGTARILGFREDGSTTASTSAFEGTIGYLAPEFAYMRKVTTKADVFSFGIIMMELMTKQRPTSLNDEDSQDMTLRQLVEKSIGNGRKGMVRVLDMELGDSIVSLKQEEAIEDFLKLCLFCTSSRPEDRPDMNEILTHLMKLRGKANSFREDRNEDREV
LRR receptor-like serine/threonine-protein kinase FLS2 (Arabidopsis thaliana (Mouse-ear cress)), Q9FL28 S437Y, sequence (Q9FL28 whole entry S437Y): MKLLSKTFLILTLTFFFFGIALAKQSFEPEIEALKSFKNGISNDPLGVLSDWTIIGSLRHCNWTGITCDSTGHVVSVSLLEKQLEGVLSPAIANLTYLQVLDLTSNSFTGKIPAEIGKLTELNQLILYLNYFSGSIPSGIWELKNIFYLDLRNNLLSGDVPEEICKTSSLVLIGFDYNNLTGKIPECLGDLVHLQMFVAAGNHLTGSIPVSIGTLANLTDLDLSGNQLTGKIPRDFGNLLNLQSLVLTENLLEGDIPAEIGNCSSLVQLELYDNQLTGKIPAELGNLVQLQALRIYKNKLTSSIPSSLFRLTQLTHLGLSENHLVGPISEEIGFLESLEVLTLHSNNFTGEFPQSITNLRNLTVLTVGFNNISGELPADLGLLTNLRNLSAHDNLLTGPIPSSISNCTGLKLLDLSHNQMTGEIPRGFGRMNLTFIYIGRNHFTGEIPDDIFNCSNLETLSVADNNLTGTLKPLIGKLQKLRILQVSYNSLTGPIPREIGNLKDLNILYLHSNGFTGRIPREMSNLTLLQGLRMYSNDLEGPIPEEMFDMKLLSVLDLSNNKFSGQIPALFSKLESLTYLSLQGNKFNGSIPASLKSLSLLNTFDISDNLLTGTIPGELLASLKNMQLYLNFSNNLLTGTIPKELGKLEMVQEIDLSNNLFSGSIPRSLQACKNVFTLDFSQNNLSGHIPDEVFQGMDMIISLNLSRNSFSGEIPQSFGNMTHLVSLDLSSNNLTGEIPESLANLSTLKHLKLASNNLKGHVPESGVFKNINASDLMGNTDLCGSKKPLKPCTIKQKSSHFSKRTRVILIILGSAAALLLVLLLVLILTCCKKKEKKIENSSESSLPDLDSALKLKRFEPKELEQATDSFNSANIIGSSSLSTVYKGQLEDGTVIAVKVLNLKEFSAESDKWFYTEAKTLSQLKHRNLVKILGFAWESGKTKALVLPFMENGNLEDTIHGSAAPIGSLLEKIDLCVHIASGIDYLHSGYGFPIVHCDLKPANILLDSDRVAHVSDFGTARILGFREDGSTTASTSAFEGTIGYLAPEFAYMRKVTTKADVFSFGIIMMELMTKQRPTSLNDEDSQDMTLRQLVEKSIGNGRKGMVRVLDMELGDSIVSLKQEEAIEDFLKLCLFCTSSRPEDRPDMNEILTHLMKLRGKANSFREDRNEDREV
LRR receptor-like serine/threonine-protein kinase FLS2 (Arabidopsis thaliana (Mouse-ear cress)), Q9FL28 T342Y, sequence (Q9FL28 whole entry T342Y): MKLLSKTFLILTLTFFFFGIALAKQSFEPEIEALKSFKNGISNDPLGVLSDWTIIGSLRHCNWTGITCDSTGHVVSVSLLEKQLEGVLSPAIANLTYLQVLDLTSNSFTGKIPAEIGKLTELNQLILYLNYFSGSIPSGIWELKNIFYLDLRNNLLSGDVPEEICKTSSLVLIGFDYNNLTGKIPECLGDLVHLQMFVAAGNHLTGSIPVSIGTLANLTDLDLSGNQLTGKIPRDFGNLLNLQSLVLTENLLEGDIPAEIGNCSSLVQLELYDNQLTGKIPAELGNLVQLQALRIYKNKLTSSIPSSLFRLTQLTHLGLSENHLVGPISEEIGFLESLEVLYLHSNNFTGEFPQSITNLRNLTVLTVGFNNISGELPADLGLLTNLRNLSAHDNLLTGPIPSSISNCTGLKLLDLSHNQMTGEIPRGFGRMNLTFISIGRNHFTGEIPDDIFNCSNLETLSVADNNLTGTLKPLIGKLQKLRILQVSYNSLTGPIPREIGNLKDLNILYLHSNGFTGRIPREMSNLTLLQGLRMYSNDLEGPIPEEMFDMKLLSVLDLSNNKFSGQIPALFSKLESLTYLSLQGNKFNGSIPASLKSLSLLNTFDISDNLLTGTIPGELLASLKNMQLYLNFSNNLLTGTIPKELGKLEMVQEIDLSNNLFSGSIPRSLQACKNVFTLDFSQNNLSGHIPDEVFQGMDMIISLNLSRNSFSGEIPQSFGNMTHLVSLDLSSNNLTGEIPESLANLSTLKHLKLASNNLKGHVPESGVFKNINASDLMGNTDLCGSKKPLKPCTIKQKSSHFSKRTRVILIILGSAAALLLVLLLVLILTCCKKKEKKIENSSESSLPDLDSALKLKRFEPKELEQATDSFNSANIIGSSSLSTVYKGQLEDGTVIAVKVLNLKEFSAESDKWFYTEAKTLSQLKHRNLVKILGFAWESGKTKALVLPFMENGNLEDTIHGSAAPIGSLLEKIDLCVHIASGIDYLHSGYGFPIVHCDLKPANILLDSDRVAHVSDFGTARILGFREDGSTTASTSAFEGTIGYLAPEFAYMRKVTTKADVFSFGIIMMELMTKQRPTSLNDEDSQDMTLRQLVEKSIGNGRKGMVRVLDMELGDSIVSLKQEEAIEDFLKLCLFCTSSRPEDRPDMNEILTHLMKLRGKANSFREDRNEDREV

Substance | effect of a mutation on the interaction (bak1_arath BAK1) | effect of a mutation on the interaction (flica_pseai fliC)
LRR receptor-like serine/threonine-protein kinase FLS2 (Arabidopsis thaliana (Mouse-ear cress)), Q9FL28 D414A | decreasing interaction strength | decreasing interaction strength
LRR receptor-like serine/threonine-protein kinase FLS2 (Arabidopsis thaliana (Mouse-ear cress)), Q9FL28 T342Y | disrupting interaction strength | disrupting interaction strength
LRR receptor-like serine/threonine-protein kinase FLS2 (Arabidopsis thaliana (Mouse-ear cress)), Q9FL28 R294A;H316A | disrupting interaction strength | disrupting interaction strength
LRR receptor-like serine/threonine-protein kinase FLS2 (Arabidopsis thaliana (Mouse-ear cress)), Q9FL28 S437Y | decreasing interaction strength | decreasing interaction strength
